Laboratory results from patent US20180016312A1 (Pieris, published 2018).

How the values were obtained:
human angiopoietin-2 [1] = target: T1, human angiopoietin-2 (human, UniProt O15123 19-496, limits assumed); experiment: competition ELISA; 0.5 nM hAng-2 pre-incubated with binder, free hAng-2 captured on hTie-2 Fc (competitor)
T1 construct: Bought recombinant protein with a His tag (detected by anti-HIS-tag antibody); also called human Ang-2; hAng-2
T1 sequence (looked up): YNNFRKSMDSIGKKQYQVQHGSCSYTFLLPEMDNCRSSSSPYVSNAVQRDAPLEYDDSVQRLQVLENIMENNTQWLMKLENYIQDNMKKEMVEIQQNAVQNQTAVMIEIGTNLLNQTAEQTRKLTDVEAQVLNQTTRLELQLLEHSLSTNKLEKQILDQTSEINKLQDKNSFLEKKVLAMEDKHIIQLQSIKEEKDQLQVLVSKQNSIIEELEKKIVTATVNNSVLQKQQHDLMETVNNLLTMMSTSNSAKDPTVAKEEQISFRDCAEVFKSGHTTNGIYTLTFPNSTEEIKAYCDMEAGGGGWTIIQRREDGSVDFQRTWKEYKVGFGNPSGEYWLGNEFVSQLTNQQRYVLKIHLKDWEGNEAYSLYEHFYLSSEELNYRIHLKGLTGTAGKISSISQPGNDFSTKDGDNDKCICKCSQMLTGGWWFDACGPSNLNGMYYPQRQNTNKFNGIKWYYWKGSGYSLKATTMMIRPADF
Description: All incubation steps were performed with shaking at 300 rpm, and the plate was washed after each incubation step with 80 μl PBS-T buffer (PBS, 0.05% Tween 20) for five times using a Biotek EL405 select CW washer (Biotek). In the first step, a 384 well plate was directly coated with 20 μl of soluble human hTie-2 Fc (Reliatech) at a concentration of […] in PBS over night at 4 ° C. After washing, h Tie-2 Fc coated wells were blocked with 60 μl PBS-T/BSA (2% BSA in PBS containing 0.1% Tween 20) for 1 h at room temperature.
Curve fitting was performed using GraphPad Prism 4 software.

human angiopoietin-2 [2] = target: T1, human angiopoietin-2; experiment: ELISA; Ang-2 coated, mutein detected by anti-Streptag-HRP
Description: Binding of muteins was tested by a sandwich ELISA assay.
20 μl of serially diluted muteins were incubated in PBS-T/BSA for 1h at room temperature (RT).
The residual supernatants were discarded and 20 μl HRP-labeled anti-Streptag antibody was added at a predetermined optimal concentration in PBS-T/BSA and incubated for 1 h at RT. After washing, 20 μl fluorogenic HRP substrate (QuantaBlu, Thermo) was added to each well, and the reaction was allowed to proceed for 15 to 60 minutes. The fluorescence intensity of every well on the plate was read using a fluorescence microplate reader (Tecan or Molecular Devices). Curve fitting was performed using GraphPad Prism 4 software.

human angiopoietin-2 [3] = target: T1, human angiopoietin-2; experiment: competition cell ECL; hAng-2 pre-incubated with binder, free Ang-2 captured on HEK:hTie-2 cells (competitor)
Description: (§1) All incubation steps were performed at room temperature, and the plate was washed after each incubation step with 80 μl PBS buffer for two times using a Biotek EL405 select CW washer (Biotek). In the first step, a 384 well plate was precoated for 5 minutes with poly D lysine and washed twice with PBS. 10⁴ HEK:hTie-2 cells per well were seeded and allowed to adhere to the surface of the wells overnight at 37° C. . After washing, cell coated wells were blocked with 60 μl PBS/Casein (2% Casein in PBS) for 1 h at room temperature.
(§2) After washing, 35 μl surfactant-free reading buffer was added to each well and the ECL signal of every well was read using a Mesoscale Discovery reader.

mouse angiopoietin-2 = target: T2, mouse angiopoietin-2 (mouse, UniProt O35608 19-496, limits assumed); experiment: competition cell ECL; mAng-2 pre-incubated with binder, free Ang-2 captured on HEK:hTie-2 cells (competitor)
T2 construct: Bought recombinant protein; also called mouse Ang-2; mAng-2
T2 sequence (looked up): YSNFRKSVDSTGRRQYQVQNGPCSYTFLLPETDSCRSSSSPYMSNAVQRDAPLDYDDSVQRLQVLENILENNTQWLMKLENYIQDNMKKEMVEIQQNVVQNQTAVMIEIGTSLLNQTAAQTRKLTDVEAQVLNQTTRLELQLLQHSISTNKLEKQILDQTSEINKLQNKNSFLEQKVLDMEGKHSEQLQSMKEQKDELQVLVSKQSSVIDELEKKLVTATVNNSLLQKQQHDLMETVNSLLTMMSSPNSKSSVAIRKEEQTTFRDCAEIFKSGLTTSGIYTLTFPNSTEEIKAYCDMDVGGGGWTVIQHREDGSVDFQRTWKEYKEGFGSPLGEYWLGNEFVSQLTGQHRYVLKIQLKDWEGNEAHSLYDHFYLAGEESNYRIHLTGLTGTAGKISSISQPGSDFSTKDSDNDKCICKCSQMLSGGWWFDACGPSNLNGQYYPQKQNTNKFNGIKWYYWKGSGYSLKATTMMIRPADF
Description: as §1, §2

human angiopoietin-2 [4] = target: T1, human angiopoietin-2; experiment: cell-based or functional assay
human angiopoietin-2 [5] = target: T1, human angiopoietin-2; experiment: SPR Biacore T200; biotinylated mutein captured, hAng-2 analyte, 1:1 model, 25 C
Description: In the SPR affinity assay, biotinylated muteins and negative control were captured on a sensor chip CAP using the Biotin CAPture Kit (GE Healthcare): Sensor Chip CAP is pre-immobilized with an ssDNA oligo. Undiluted Biotin CAPture Reagent (streptavidin conjugated with the complementary ss-DNA oligo) was applied at a flow rate of 2 μl/min for 300 s. Subsequently, 0.02 μg/mL of biotinylated muteins or negative control were applied for 300 s at a flow rate of 5 μl/min. […] The reference channel was loaded with Biotin CAPture Reagent only.
Applying a flow rate of 30 μL/min, a multi cycle kinetics approach was used with a sample contact time of 180 s and a dissociation time of 4600 s. All measurements were performed at 25° C. […] Data were evaluated with Biacore T200 Evaluation software (V 1.0). Double referencing was used. A 1:1 Binding model was used to fit the raw data even though the analyte was known to be a multimer.

B1: hNGAL lipocalin mutein SEQ ID NO: 2 (designed binder)
chain: QDSTSDLIPAPPLSKVPLQQNFQDNQFHGKWYVVGFAGNHRLREDKDPGKMHATIYELKEDKSYNVTDVTFAFKKCNYRIHTFVPGSQPGEFTLGNIKSWPGETSTLVRVVSTNYNQHAMVFFKTVMQNREWFWITLYGRTKELTSELKENFIRFSKSLGLPENHIVFPVPIDQCIDGSAWSHPQFEK
notes: Mutein of mature hNGAL
IC50 (human angiopoietin-2 [1]): 1.71 nM | EC50 (human angiopoietin-2 [2]): 3 nM

B2: hNGAL lipocalin mutein SEQ ID NO: 13 (designed binder)
chain: QDSTSDLIPAPPLSKVPLQQNFQDNQFHGKWYVVGVAGNWYLREDKDPIKMTATIYELKEDKSYDVTQVGFEQEKCKYSIHTFVPGSQPGEFTLGDIKSWPGDTSPLVRVVSTNYNQHAMVFFKGMMQDREVFAITLYGRTKELTSELKENFIRFSKSLGLPENHIVFPVPIDQCIDGSAWSHPQFEK
notes: Mutein of mature hNGAL
IC50 (human angiopoietin-2 [1]): 0.184 nM | IC50 (human angiopoietin-2 [3]): 5.43 nM | IC50 (mouse angiopoietin-2): 7.34 nM

B3: hNGAL lipocalin mutein SEQ ID NO: 12 (designed binder)
chain: QDSTSDLIPAPPLSKVPLQQNFQDNQFHGKWYVVGVAGNWYLREDKDPIKMTATIYELKEDKSYDVTQVGFEQEKCKYSIHTFVPGSQPGEFTLGNIKSWPGDTSPLVRVVSTNYDQHAMVFFKGVMQDREVFAITLYGRTKELTSELKENFIRFSKSLGLPENHIVFPVPIDQCIDGSAWSHPQFEK
notes: Mutein of mature hNGAL
IC50 (human angiopoietin-2 [1]): 0.131 nM | IC50 (human angiopoietin-2 [3]): 5.29 nM | IC50 (mouse angiopoietin-2): 3.12 nM

B4: hNGAL lipocalin mutein SEQ ID NO: 3 (designed binder)
chain: QDSTSDLIPAPPLSKVPLQQNFQDNQFHGKWYVVGVAGNWYLREDKDPIKMTATIYELKEDKSYNVTQVGFEQKKCKYSIHTFVPGSQPGEFTLGDIKSWPGDTSLLVRVVSTNYNQHAMVFFKGVMQNREVFAITLYGRTKELTSELKENFIRFSKSLGLPENHIVFPVPIDQCIDGSAWSHPQFEK
notes: Mutein of mature hNGAL
IC50 (human angiopoietin-2 [1]): 0.319 nM | IC50 (human angiopoietin-2 [3]): 10.7 nM | EC50 (human angiopoietin-2 [2]): 2.8 nM | IC50 (mouse angiopoietin-2): 23.2 nM | IC50 mean, LEC proliferation assay (CellTiter-Glo) (human angiopoietin-2 [4]): 2.81 nM

B5: hNGAL lipocalin mutein SEQ ID NO: 14 (designed binder)
chain: QDSTSDLIPAPPLSKVPLQQNFQDNQFHGKWYVVGMAGNWDLREDKDPIKMTATIYELKEDKSYDVTQVAFEQKKCKYSIHTFVPGSQPGEFTLGQIKSWPGDTSPLVRVVSTNYNQHAMVFFKGVMQNREVFAITLYGRTKELTSELKENFIRFSKSLGLPENHIVFPVPIDQCIDGSAWSHPQFEK
notes: Mutein of mature hNGAL
IC50 (human angiopoietin-2 [1]): 0.105 nM | IC50 (human angiopoietin-2 [3]): 6.41 nM | IC50 (mouse angiopoietin-2): 2.32 nM

B6: hNGAL lipocalin mutein SEQ ID NO: 5 (designed binder)
chain: QDSTSDLIPAPPLSKVPLQQNFQDNQFHGKWYVVGQAGNYWLREDKDPIKMSATIYELKEDKSYNVTIVYFTRKKCSYRIYTFVPGSQPGEFTLGPIKSYPGDTSTLVRVVSTNYNQHAMVFFKHVYQNREWFEITLYGRTKELTSELKENFIRFSKSLGLPENHIVFPVPIDQCIDGSAWSHPQFEK
notes: Mutein of mature hNGAL
IC50 (human angiopoietin-2 [1]): 0.861 nM | EC50 (human angiopoietin-2 [2]): 3.5 nM

B7: hNGAL lipocalin mutein SEQ ID NO: 9 (designed binder)
chain: QDSTSDLIPAPPLSKVPLQQNFQDNQFHGKWYVVGHAGNYILREDKDPGKMWATIYELKEDKSYDVTEVSFGPKKCNYRIWTFVPGSQPGEFTLGGIKSPPGGTSTLVRVVSTNYNQHAMVFFKHVLQNREFFEITLYGRTKELTSELKENFIRFSKSLGLPENHIVFPVPIDQCIDGSAWSHPQFEK
notes: Mutein of mature hNGAL; Biotinylated with NHS-PEG4-Biotin for the SPR assay
IC50 (human angiopoietin-2 [1]): 0.0929 nM | IC50 (human angiopoietin-2 [3]): 3.82 nM | EC50 (human angiopoietin-2 [2]): 2.1 nM | IC50 (mouse angiopoietin-2): 1.39 nM | IC50 mean, LEC proliferation assay (CellTiter-Glo) (human angiopoietin-2 [4]): 0.142 nM | Kd (human angiopoietin-2 [5]): 0.29 nM | koff (human angiopoietin-2 [5]): 9.4e-05 s⁻¹

B8: hNGAL lipocalin mutein SEQ ID NO: 1 (designed binder)
chain: QDSTSDLIPAPPLSKVPLQQNFQDNQFHGKWYVVGQAGNYILREDKDPGKMWATIYELKEDKSYNVTGVSFGPKKCNYTIWTFVPGSQPGEFTLGGIKSPPGGTSTLVRVVSTNYNQHAMVFFKHVLQNREFFEITLYGRTKELTSELKENFIRFSKSLGLPENHIVFPVPIDQCIDGSAWSHPQFEK
notes: Mutein of mature hNGAL
IC50 (human angiopoietin-2 [1]): 0.558 nM | IC50 (human angiopoietin-2 [3]): 18.9 nM | EC50 (human angiopoietin-2 [2]): 3.7 nM | IC50 (mouse angiopoietin-2): 3.98 nM | IC50 mean, LEC proliferation assay (CellTiter-Glo) (human angiopoietin-2 [4]): 2.25 nM

B9: hNGAL lipocalin mutein SEQ ID NO: 6 (designed binder)
chain: QDSTSDLIPAPPLSKVPLQQNFQDNQFHGKWYVVGQAGNYILREDKDPEKMWATIYELKEDKSYDVTGVSFGPKKCNYRIWTFVPGSQPGEFTLGGIKSSPGQTSTLVRVVSTNYNQHAMVFFKHVLQNREFFEITLYGRTKELTSELKENFIRFSKSLGLPENHIVFPVPIDQCIDGSAWSHPQFEK
notes: Mutein of mature hNGAL
IC50 (human angiopoietin-2 [1]): 0.0627 nM | IC50 (human angiopoietin-2 [3]): 3.46 nM | IC50 (mouse angiopoietin-2): 1.21 nM

B10: hNGAL lipocalin mutein SEQ ID NO: 10 (designed binder)
chain: QDSTSDLIPAPPLSKVPLQQNFQDNQFHGKWYVVGQAGNYILREDKDPQKMWATIYELKEDKSYDVTGVSFGAKKCVYRIWTFVPGSQPGEFTLGGIKSPPGGTSTLVRVVSTNYNQHAMVFFKHVLQNREFFEITLYGRTKELTSELKENFIRFSKSLGLPENHIVFPVPIDQCIDGSAWSHPQFEK
notes: Mutein of mature hNGAL
IC50 (human angiopoietin-2 [1]): 0.0794 nM | IC50 (human angiopoietin-2 [3]): 4.63 nM | IC50 (mouse angiopoietin-2): 1.05 nM

B11: hNGAL lipocalin mutein SEQ ID NO: 4 (designed binder)
chain: QDSTSDLIPAPPLSKVPLQQNFQDNQFHGKWYVVGEAGNVELREDKDPVKMTATIYELKEDKSYNVTEVRFWLKKCKYNIHTFVPGSQPGEFTLGAIKSGPGMTSTLVRVVSTNYNQHAMVFFKTVMQNREWFWITLYGRTKELTSELKENFIRFSKSLGLPENHIVFPVPIDQCIDGSAWSHPQFEK
notes: Mutein of mature hNGAL
IC50 (human angiopoietin-2 [1]): 0.412 nM

B12: benchmark antibody 1 (SEQ ID NOs: 17/18) (antibody, human IgG1, lambda, V domains shown)
VH: not shown
VL: QPGLTQPPSVSVAPGQTARITCGGNNIGSKSVHWYQQKPGQAPVLVVYDDSDRPSGIPERFSGSNSGNTATLTISRVEAGDEADYYCQVWDSSSDHYVFGTGTKVTVLG
IC50 (human angiopoietin-2 [1]): 0.0158 nM | IC50 mean, LEC proliferation assay (CellTiter-Glo) (human angiopoietin-2 [4]): 0.0668 nM
